Holding throughout (test): cell-based or functional assay
The target in one assay is T1, AlgW-R374A (Pseudomonas aeruginosa, UniProt Q9HVX1 30-389, R374A).
T1 sequence: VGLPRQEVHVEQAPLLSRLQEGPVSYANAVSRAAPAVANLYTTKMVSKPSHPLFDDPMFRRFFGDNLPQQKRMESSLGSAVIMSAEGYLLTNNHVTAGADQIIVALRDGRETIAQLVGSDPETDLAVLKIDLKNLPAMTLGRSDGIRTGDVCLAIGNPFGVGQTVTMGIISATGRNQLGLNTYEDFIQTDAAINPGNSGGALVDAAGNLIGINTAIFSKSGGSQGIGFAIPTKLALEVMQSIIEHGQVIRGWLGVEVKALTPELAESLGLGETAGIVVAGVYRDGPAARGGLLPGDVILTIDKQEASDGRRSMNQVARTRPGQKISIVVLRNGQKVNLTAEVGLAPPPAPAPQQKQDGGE

A further assay addresses T2, AlgW-Y212A (Pseudomonas aeruginosa, UniProt Q9HVX1 30-389, Y212A).
T2 sequence: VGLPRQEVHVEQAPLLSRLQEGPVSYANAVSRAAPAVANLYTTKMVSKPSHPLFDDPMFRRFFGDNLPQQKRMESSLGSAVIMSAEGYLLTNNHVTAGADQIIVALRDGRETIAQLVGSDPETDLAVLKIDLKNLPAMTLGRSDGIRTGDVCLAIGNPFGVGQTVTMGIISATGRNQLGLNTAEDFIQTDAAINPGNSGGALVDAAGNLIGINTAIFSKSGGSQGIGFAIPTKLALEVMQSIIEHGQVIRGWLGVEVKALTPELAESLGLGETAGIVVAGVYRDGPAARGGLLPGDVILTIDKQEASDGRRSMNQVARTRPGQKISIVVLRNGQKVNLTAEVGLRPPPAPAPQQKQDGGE

The next assay deals with T3, AlgW-E266A (Pseudomonas aeruginosa, UniProt Q9HVX1 30-389, E266A).
T3 sequence: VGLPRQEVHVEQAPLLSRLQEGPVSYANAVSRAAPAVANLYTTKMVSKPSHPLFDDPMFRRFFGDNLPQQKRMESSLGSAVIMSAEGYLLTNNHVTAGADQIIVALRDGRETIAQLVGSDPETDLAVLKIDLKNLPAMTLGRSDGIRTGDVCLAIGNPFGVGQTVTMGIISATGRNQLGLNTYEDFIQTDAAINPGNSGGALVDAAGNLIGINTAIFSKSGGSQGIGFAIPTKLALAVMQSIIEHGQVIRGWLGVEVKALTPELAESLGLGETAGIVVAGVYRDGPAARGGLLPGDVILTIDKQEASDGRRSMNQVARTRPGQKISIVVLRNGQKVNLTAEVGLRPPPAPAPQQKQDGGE

Another assay addresses T4, AlgW-R279A (Pseudomonas aeruginosa, UniProt Q9HVX1 30-389, R279A).
T4 sequence: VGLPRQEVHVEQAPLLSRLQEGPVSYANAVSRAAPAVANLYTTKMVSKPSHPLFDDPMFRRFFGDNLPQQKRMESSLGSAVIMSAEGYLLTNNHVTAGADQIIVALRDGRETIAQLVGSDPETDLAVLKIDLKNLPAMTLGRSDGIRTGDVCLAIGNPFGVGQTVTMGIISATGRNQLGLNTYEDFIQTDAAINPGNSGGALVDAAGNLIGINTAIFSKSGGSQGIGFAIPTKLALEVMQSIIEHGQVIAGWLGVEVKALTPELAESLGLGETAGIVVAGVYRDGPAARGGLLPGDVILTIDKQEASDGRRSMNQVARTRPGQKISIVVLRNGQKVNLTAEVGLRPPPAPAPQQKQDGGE

The target of another assay is T5, AlgW-R347A (Pseudomonas aeruginosa, UniProt Q9HVX1 30-389, R347A).
T5 sequence: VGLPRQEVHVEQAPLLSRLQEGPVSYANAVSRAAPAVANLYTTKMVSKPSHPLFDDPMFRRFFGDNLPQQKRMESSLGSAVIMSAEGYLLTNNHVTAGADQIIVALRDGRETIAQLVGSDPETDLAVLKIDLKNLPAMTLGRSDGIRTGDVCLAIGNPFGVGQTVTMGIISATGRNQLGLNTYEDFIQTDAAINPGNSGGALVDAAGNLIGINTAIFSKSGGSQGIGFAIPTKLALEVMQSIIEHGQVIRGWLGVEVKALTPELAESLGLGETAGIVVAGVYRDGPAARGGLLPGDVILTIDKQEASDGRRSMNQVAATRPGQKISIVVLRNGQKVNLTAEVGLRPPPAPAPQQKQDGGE

A further assay addresses T6, AlgW-W281A (Pseudomonas aeruginosa, UniProt Q9HVX1 30-389, W281A).
T6 sequence: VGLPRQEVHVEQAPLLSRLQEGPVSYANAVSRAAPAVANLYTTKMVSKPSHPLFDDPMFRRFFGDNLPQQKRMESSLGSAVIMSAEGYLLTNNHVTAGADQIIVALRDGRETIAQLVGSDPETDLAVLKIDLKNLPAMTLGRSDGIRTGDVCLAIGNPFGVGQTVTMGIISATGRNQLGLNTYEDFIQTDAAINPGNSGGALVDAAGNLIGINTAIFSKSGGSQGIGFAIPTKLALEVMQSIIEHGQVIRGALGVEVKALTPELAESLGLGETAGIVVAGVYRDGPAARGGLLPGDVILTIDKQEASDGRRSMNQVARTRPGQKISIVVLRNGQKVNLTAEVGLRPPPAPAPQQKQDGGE

For another assay, the target named is T7, AlgW-L282A (Pseudomonas aeruginosa, UniProt Q9HVX1 30-389, L282A).
T7 sequence: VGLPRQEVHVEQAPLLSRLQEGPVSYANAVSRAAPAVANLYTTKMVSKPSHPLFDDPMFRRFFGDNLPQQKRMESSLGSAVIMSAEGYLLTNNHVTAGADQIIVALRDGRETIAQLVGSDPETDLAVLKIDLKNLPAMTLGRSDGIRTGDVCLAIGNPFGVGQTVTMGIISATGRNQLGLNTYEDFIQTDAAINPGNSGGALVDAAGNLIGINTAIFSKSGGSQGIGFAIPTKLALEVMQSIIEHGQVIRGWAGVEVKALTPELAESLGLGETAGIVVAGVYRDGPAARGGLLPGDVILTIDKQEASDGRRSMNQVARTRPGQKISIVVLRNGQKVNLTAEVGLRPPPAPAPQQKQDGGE

B1: decapeptide SVRDELRWVF (MucE C-terminal tail) (peptide)
peptide: SVRDELRWVF
notes: C-terminal decapeptide of the periplasmic protein MucE of Pseudomonas aeruginosa; also called C-terminal decapeptide of MucE
As to B1, the “maximal cleavage activity of peptide-activated AlgW (Abz-VLAG-pNA)” value with AlgW-R374A came to 5.45 μM min^−1; in the assay with AlgW-W281A, 10.3 μM min^−1; with AlgW-L282A it was 13.2 μM min^−1. For the same molecule, the “half-maximal activation concentration of the peptide activator (cleavage of Abz-VLAG-pNA)” value with AlgW-Y212A turned out to be 2.12 μM; with AlgW-E266A, 1.08 μM; with AlgW-R279A, 2.19 μM; in the assay with AlgW-R347A, 1.85 μM; with AlgW-W281A, 1.51 μM; in the assay with AlgW-L282A, 2.76 μM.

The record behind these values is PMC8545111, “Molecular Basis of the Versatile Regulatory Mechanism of HtrA-Type Protease AlgW from Pseudomonas aeruginosa” (mBio, 2021).
